The supplement of paper PMC10724198
± gives the standard deviation of the averaged measurements.

System: Saccharomyces cerevisiae
Experiment: protein stability index of tFT-peptide fusion (C-terminal peptide) (PSI (0-1 scale)); higher = more stable (slower turnover)
Conditions: genetic background: wild type; temperature: 30 C
Method: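 Multiplexed protein stability (MPS) profiling in S. cerevisiae. Random 12-aa peptides (tFT-X12 library) are fused to the C-terminus of a sfGFP-mCherry tandem fluorescent timer, after mCherry and a GGGS linker. Cells are FACS-sorted into 8 mCherry/sfGFP bins and deep-sequenced. The protein stability index (PSI) is the read-weighted bin average, scaled from 0 (unstable) to 1 (stable). Only peptides with >10 reads are reported; cells were grown at 30 °C in SC-His with glucose.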
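Note: PSI is a weighted mean of sequencing reads over stability bins, variants kept only with over 10 reads, mCherry proximal and sfGFP distal, peptide attached via GGGS linker.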

Sequence | protein stability index
GSLGVWKGCGEG | 0.652 ± 0.018
GSLHPAPDLRTR | 0.709 ± 0.036
GSLLVCGMVAGM | 0.5236 ± 0.0046
GSNCQVRMSIHR | 0.703 ± 0.011
GSNLQWNSKREE | 0.6165 ± 0.0016
GSNTTKRESQPH | 0.708 ± 0.067
GSPPSSLTADSA | 0.683 ± 0.017
GSPSRKGQSRTG | 0.698 ± 0.012
GSRALDSPSHCS | 0.74 ± 0.023
GSRARKARQPHG | 0.582 ± 0.2
GSRGGPVGEAAG | 0.665 ± 0.012
GSRIGTVSIRRI | 0.691 ± 0.072
GSRRVSFFLRFG | 0.647 ± 0.033
GSSAEGKALTES | 0.668 ± 0.053
GSTGRGEGSGVT | 0.664 ± 0.04
GSTLWGMAGGAR | 0.6985 ± 0.0056
GSVEGVLWSGVL | 0.711 ± 0.031
GSVFVFWESWRC | 0.6803 ± 0.0029
GSVRCGLRVRVG | 0.605 ± 0.047
GSWIKFVCRRAG | 0.731 ± 0.0095
GSWLGGRTLAGI | 0.707 ± 0.036
GTACIIVSGYGL | 0.643 ± 0.016
GTCWAGAMGGVG | 0.675 ± 0.042
GTDLKGFPFLTF | 0.688 ± 0.014
GTEKESRRKREQ | 0.698 ± 0.042
GTGERHIASEEK | 0.728 ± 0.013

Sequence | protein stability index
GTGMHEGEPGEV | 0.686 ± 0.046
GTGRGRAGARCK | 0.679 ± 0.018
GTRAGGRSKRER | 0.735 ± 0.11
GTRWPLVAPRER | 0.7254 ± 0.0045
GTVGRPNATGKV | 0.742 ± 0.088
GVAEFDGWFCLG | 0.7329 ± 0.0022
GVAWGCVSRVFG | 0.68 ± 0.045
GVCLGCWCWWVG | 0.604 ± 0.044
GVCVLGGWSGFW | 0.758 ± 0.062
GVDPVGVLFCGA | 0.656 ± 0.074
GVEGAEFVEAGT | 0.699 ± 0.041
GVEGCKRAGKLR | 0.651 ± 0.033
GVERLGGVLYVL | 0.6274 ± 0.0015
GVFWGYGLRDGV | 0.731 ± 0.073
GVGCGGACRPVG | 0.662 ± 0.09
GVGFGCGGVWME | 0.731 ± 0.012
GVGFGGGGVWME | 0.746 ± 0.031
GVGGGEAGVIGR | 0.769 ± 0.041
GVGGGGRLMCGV | 0.667 ± 0.04
GVGGGGVGLWLG | 0.656 ± 0.025
GVGSGEASDGCT | 0.626 ± 0.12
GVGWVWGGVWAG | 0.744 ± 0.045
GVGYRLGACPDR | 0.695 ± 0.053
GVIQARRSASSS | 0.689 ± 0.043
GVLEEVGPGLFL | 0.78 ± 0.14
GVLGPSFLSVAV | 0.584 ± 0.0082

Sequence | protein stability index
GVLGRVRLGWVG | 0.671 ± 0.012
GVLKQGSLPCRD | 0.706 ± 0.14
GVLSYCGFVTFG | 0.603 ± 0.02
GVMCRTGSGMVM | 0.711 ± 0.021
GVNDRLIKMSCA | 0.667 ± 0.033
GVPFPGPNTLIL | 0.73 ± 0.075
GVRGLLAGGGVW | 0.709 ± 0.027
GVRRSRAARVRK | 0.777 ± 0.18
GVTYEDFWGYCG | 0.797 ± 0.018
GVVGGGGEAWRE | 0.794 ± 0.038
GVVGTVEGGATG | 0.658 ± 0.037
GVVGVWRGAGWR | 0.717 ± 0.041
GVVSSHVDMIGL | 0.668 ± 0.0067
GVVVGCGYGLVG | 0.665 ± 0.04
GVVWMSCGGGGG | 0.7684 ± 0.0017
GVWEGLQLGLIS | 0.7826 ± 0.0032
GVWGGGGGWGVA | 0.688 ± 0.0096
GVWPVGWWCRGR | 0.748 ± 0.047
GWCACFMGSGWG | 0.703 ± 0.06
GWCRSYVAFGVY | 0.64 ± 0.052
GWDRDQKPENKE | 0.738 ± 0.045
GWFTMLTGAFAE | 0.7249 ± 0.003
GWGGGAAQKCGQ | 0.7 ± 0.039
GWGGGGFRVVVG | 0.782 ± 0.049
GWGMVLYRNMML | 0.6039 ± 0.0046
GWGRGGFRVVVG | 0.712 ± 0.02

Sequence | protein stability index
GWLASPHFPYAY | 0.6883 ± 0.001
GWLIWRVYGGGG | 0.654 ± 0.014
GWSRCVFGGYRL | 0.7 ± 0.022
GWSSTLTFLGGA | 0.701 ± 0.0078
GWTQFVLHSMFG | 0.72 ± 0.088
GWVPCGSWRVPG | 0.631 ± 0.038
GWVQRGAEARRE | 0.705 ± 0.047
GWWGCGASVCGV | 0.72 ± 0.15
GYARESERFGIH | 0.694 ± 0.011
GYFHADYIPLSY | 0.7474 ± 0.0029
GYGPSFALRPDS | 0.651 ± 0.026
GYGWGVGWGFGR | 0.673 ± 0.028
GYMRMGLCVYSD | 0.596 ± 0.092
GYRGMERGEGGG | 0.723 ± 0.068
GYTSRGISFLRA | 0.698 ± 0.042
GYVVVGGGGGLG | 0.717 ± 0.039
HAQRTSSRRAKS | 0.711 ± 0.019
HARFRPRKAVGD | 0.67 ± 0.042
HATFSLFLASCY | 0.625 ± 0.011
HCLIPGEIHRIS | 0.6741 ± 0.0037
HCRDCLVLIQFN | 0.664 ± 0.048
HCSLRPRPNHAR | 0.746 ± 0.032
HDHEARHSDSLN | 0.658 ± 0.026
HDRRGLRRISAT | 0.647 ± 0.0084
HEHFRDRAGPAS | 0.636 ± 0.017
HEVRGVFWNPRF | 0.712 ± 0.053

Sequence | protein stability index
HFPIPPSLFFRP | 0.631 ± 0.019
HGLFGRACRASH | 0.66 ± 0.043
HGTVQNIVARYV | 0.611 ± 0.026
HHGCATVTSRAS | 0.654 ± 0.042
HHPKTCHHLSRA | 0.6853 ± 0.0037
HHRNNTPLNHSY | 0.63 ± 0.007
HIFQRMCKDMQL | 0.6296 ± 0.0037
HIKAEKRKKKTS | 0.608 ± 0.024
HISRTLVDADIG | 0.66928 ± 8e-05
HISTQREEIDPA | 0.6506 ± 0.00086
HITTNHLPTSCD | 0.73 ± 0.039
HLGIGTRVWEFG | 0.716 ± 0.061
HLLLGPRSPPSP | 0.661 ± 0.022
HLPASLHLDYSI | 0.675 ± 0.043
HLPPFLRPPFPL | 0.686 ± 0.017
HLSNPRPPPPTR | 0.703 ± 0.016
HNMSDARRPSNI | 0.702 ± 0.021
HPCKKEKLYHLK | 0.594 ± 0.091
HPDAGTAARDTD | 0.648 ± 0.092
HPFGHSFLTAPF | 0.793 ± 0.16
HPGPAPPPPRGP | 0.66 ± 0.019
HPLLPRPVPLTD | 0.665 ± 0.059
HPLPSSHLPPRP | 0.75 ± 0.15
HPLPTPSPHLSP | 0.728 ± 0.016
HPPLPLPCAFPP | 0.7 ± 0.033
HPPLPPPPIVPS | 0.696 ± 0.067

Sequence | protein stability index
HPPLSPPSALFL | 0.719 ± 0.069
HPPPPAAKVAPV | 0.629 ± 0.048
HPPPTHAQGRLV | 0.671 ± 0.021
HPPTSPGGLRQP | 0.686 ± 0.0069
HPSRPARPTRHP | 0.806 ± 0.072
HPTTHYLPRPAH | 0.6779 ± 0.0022
HPVPSPSLRPPP | 0.716 ± 0.072
HRCLSRTVSPPS | 0.671 ± 0.04
HRKNKYKRKTTK | 0.676 ± 0.05
HRVRVRVYTCGF | 0.634 ± 0.05
HSGLTGLRRLVA | 0.594 ± 0.012
HSLPPPCLHSTP | 0.683 ± 0.021
HSPHISAPPLPY | 0.588 ± 0.024
HSPPPPPALLPL | 0.66 ± 0.028
HSPTPLLPPSPS | 0.727 ± 0.045
HSRKVHGLWALR | 0.695 ± 0.0081
HSSFCIVIRVSR | 0.5125 ± 0.001
HTKHSQIIKHQS | 0.641 ± 0.03
HTTPGPYVLPWP | 0.807 ± 0.06
HVALPAFKQLSG | 0.746 ± 0.051
HVLQFQTNIRQN | 0.636 ± 0.1
HVLSQSLSALPC | 0.681 ± 0.044
HVPGKWTLGFGI | 0.761 ± 0.054
HVSINERFKSMY | 0.717 ± 0.025
HVTLGRGGVGPN | 0.681 ± 0.02
